{
  "source": "patent US20240025971A1",
  "about": "(ATRECA, published 2024)",
  "binders": {"B1": {"name": "AB-010020 (antibody, V domains shown)", "VH": "QMQLVQSGPEVKKPGTSVKVSCKASGFTFTSSAVQWVRQARGQRLEWIGWIVVGSGNTNYAQKFQERVTITRDMSTSTAYMELSSLRSEDTAVYYCAAPACSSTSCYDGFDIWGQGTMVTVSS", "VL": "not shown", "notes": "human IgG1"}, "B2": {"name": "AB-010021 (antibody, V domains shown)", "VH": "B1 VH with P99V, A100Y, S103G, T104G, Y107L, G109A", "VL": "not shown", "notes": "human IgG1; also called AB-0010021"}, "B3": {"name": "AB-009271 (antibody, V domains shown)", "VH": "EVQLVESGGGLIQPGGSLRLSCAASGFIVSSNYMSWVRQAPGKGLEWVSVIYSGGSTYYADSVKGRFTISRDNSKNTLYLQMNSLRAEDTAVYYCARDYGDFYFDYWGQGTLVTVSS", "VL": "EIVMTQSPATLSVSPGERATLSCRASQSVSSNLAWYQQKPGQAPRLLIYGASTRATGIPARFSGSGSGTEFTLTISSLQSEDFAVYYCQQYYNWPRTFGQGTKVEIK", "notes": "human IgG1"}, "B4": {"name": "AB-009613 (antibody, V domains shown)", "VH": "B3 VH with I28T", "VL": "not shown", "notes": "human IgG1"}, "B5": {"name": "AB-009610 (antibody, V domains shown)", "VH": "QVQLVQSGAEVKKPGSSVKVSCKASGGTFSNYAISWVRQAPGQGLEWMGRIIPILGIANYAQKFQGRVTITADKSTSTAYMELSSLRSEDTAVYYCATTPYYYDSSGYYLDYWGQGTLVTVSS", "VL": "not shown", "notes": "human IgG1"}},
  "note": "Residue numbers refer to the chain shown, from its start.",
  "data": [
    {"molecular_target": "SARS-CoV-2 Beta (B.1.351) full-length Spike protein (SARS-CoV-2, UniProt P0DTC2 14-1273)", "experiment": "cell-based or functional assay", "units": {"Pseudovirus Neutralization": "µg/mL"}, "values": [
      {"binder": "B1", "Pseudovirus Neutralization": 0.018},
      {"binder": "B2", "Pseudovirus Neutralization": 8.27},
      {"binder": "B3", "Pseudovirus Neutralization": "> 50"},
      {"binder": "B4", "Pseudovirus Neutralization": "> 50"},
      {"binder": "B5", "Pseudovirus Neutralization": "> 50"}
    ]},
    {"molecular_target": "SARS-CoV-2 Alpha (B.1.1.7) full-length Spike protein (SARS-CoV-2, UniProt P0DTC2 14-1273)", "experiment": "cell-based or functional assay", "units": {"Pseudovirus Neutralization": "µg/mL"}, "values": [
      {"binder": "B1", "Pseudovirus Neutralization": 0.013},
      {"binder": "B2", "Pseudovirus Neutralization": 2.69},
      {"binder": "B3", "Pseudovirus Neutralization": 0.275},
      {"binder": "B4", "Pseudovirus Neutralization": 7.23},
      {"binder": "B5", "Pseudovirus Neutralization": 2.84}
    ]},
    {"molecular_target": "SARS-CoV-2 Wuhan D614G full-length Spike protein (SARS-CoV-2, UniProt P0DTC2 14-1273)", "experiment": "cell-based or functional assay", "units": {"Pseudovirus Neutralization": "µg/mL"}, "values": [
      {"binder": "B1", "Pseudovirus Neutralization": 0.003},
      {"binder": "B2", "Pseudovirus Neutralization": 0.7},
      {"binder": "B3", "Pseudovirus Neutralization": 0.036},
      {"binder": "B4", "Pseudovirus Neutralization": 0.83},
      {"binder": "B5", "Pseudovirus Neutralization": 2.21}
    ]},
    {"molecular_target": "SARS-CoV-2 Delta-plus (B.1.617.2.1) full-length Spike protein (SARS-CoV-2, UniProt P0DTC2 14-1273)", "experiment": "cell-based or functional assay", "units": {"Pseudovirus Neutralization": "µg/mL"}, "values": [
      {"binder": "B1", "Pseudovirus Neutralization": 0.001},
      {"binder": "B2", "Pseudovirus Neutralization": 0.078},
      {"binder": "B3", "Pseudovirus Neutralization": "> 50"},
      {"binder": "B4", "Pseudovirus Neutralization": "> 50"},
      {"binder": "B5", "Pseudovirus Neutralization": "> 50"}
    ]},
    {"molecular_target": "SARS-CoV-2 Epsilon (B.1.427/9) full-length Spike protein (SARS-CoV-2, UniProt P0DTC2 14-1273)", "experiment": "cell-based or functional assay", "units": {"Pseudovirus Neutralization": "µg/mL"}, "values": [
      {"binder": "B1", "Pseudovirus Neutralization": 0.003},
      {"binder": "B2", "Pseudovirus Neutralization": 0.629},
      {"binder": "B3", "Pseudovirus Neutralization": 0.028},
      {"binder": "B4", "Pseudovirus Neutralization": 1.16},
      {"binder": "B5", "Pseudovirus Neutralization": "> 50"}
    ]},
    {"molecular_target": "SARS-CoV-2 Gamma (P.1.B.1.1.28) full-length Spike protein (SARS-CoV-2, UniProt P0DTC2 14-1273)", "experiment": "cell-based or functional assay", "units": {"Pseudovirus Neutralization": "µg/mL"}, "values": [
      {"binder": "B1", "Pseudovirus Neutralization": 0.0114},
      {"binder": "B2", "Pseudovirus Neutralization": 5.39},
      {"binder": "B3", "Pseudovirus Neutralization": "> 50"},
      {"binder": "B4", "Pseudovirus Neutralization": "> 50"},
      {"binder": "B5", "Pseudovirus Neutralization": "> 50"}
    ]},
    {"molecular_target": "SARS-CoV-2 Delta (B.1.617.2) full-length Spike protein (SARS-CoV-2, UniProt P0DTC2 14-1273)", "experiment": "cell-based or functional assay", "units": {"Pseudovirus Neutralization": "µg/mL"}, "values": [
      {"binder": "B1", "Pseudovirus Neutralization": 0.003},
      {"binder": "B2", "Pseudovirus Neutralization": 0.574},
      {"binder": "B3", "Pseudovirus Neutralization": 0.012},
      {"binder": "B4", "Pseudovirus Neutralization": 0.101},
      {"binder": "B5", "Pseudovirus Neutralization": "> 50"}
    ]}
  ]
}
